Assay results: patent US9074002B2, “PTP1B inhibitors” (Cold Spring Harbor Laboratory, priority 2009, dated 2015)
Values belong to the molecule of their own block, whether it stands above or below them.

Experiments:
PTP1B-OX = biological target: T1, PTP1B-OX (Homo sapiens, UniProt P18031); assay: In vitro binding assay, purified recombinant PTP1B (37 kDa) and purified scFv, Ni-NTA pull down; conditions: purified proteins, scFv in molar excess, 2 hours at 4° C.; FIG. 9
T1 construct: made in house; host or cells: E. coli BL21 (pET19b)
T1 sequence (P18031 3-277): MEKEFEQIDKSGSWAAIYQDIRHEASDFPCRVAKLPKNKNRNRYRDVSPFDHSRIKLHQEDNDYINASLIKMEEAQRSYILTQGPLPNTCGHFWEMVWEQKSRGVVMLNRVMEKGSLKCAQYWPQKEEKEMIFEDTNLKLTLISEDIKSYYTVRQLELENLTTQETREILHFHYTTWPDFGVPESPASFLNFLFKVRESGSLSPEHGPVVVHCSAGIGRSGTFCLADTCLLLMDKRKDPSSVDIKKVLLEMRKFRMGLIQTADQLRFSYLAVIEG
Protocol: (§1) They established conditions in which PTP1B is reversibly oxidized by H2O2 in solution (FIG. 8). An artificial protein substrate RCML, in which tyrosine was phosphorylated with ^32P using recombinant GST-FER kinase was used in this assay to measure the phosphatase activity. Recombinant PTP (37 kDa) was incubated with increasing concentration (50 μM to 100 mM) of H2O2. A quick buffer exchange was done to remove the H2O2 and reducing agent (TCEP) was added to reactivate the enzyme.
(§2) In the in vitro binding assay, purified PTP was reversibly oxidized with […] followed by a quick buffer exchange to remove H2O2 (FIG. 8). Purified scFv was incubated in molar excess with PTP1B-OX or with PTP under reducing condition (with 2 mM TCEP) in binding buffer (20 mM HEPES, pH 7.4, 300 mM NaCl, 0.05% BSA, 0.05% Tween-20 and 10 mM imidazole) for 2 hours at 4° C. Ni-NTA agarose was added and incubated for one hour at 4° C. Protein complex bound to Ni-NTA agarose beads was pulled down and washed (three times, 5 minutes each, at 4° C.) with binding buffer containing 20 mM imidazole to reduce non-specific binding to the beads. The protein complex was eluted from the Ni-NTA agarose beads with 500 mM imidazole (in binding buffer, pH 7.4) for 15 minutes at 4° C. with gentle shaking. The complex was separated by SDS-PAGE and PTP1B was detected with anti-PTP1B antibody (FG6) and scFv was detected with anti-HA antibody [anti-HA (3F10)-HRP, Roche] by immunoblotting. Eight different scFvs (scFvs 20, 21, 24, 28, 45, 48, 57, and 105), expressed and purified from bacterial cultures were tested by this in vitro binding experiment.

[1] = biological target: T2, PTP1B under reducing condition (Homo sapiens, UniProt P18031); assay: In vitro binding assay, purified recombinant PTP1B (37 kDa) and purified scFv, Ni-NTA pull down, reducing condition; conditions: with 2 mM TCEP; FIG. 9
T2 construct: made in house; host or cells: E. coli BL21 (pET19b)
T2 sequence (P18031 3-277 limits assumed): T1 sequence (P18031 3-277)
Protocol: as §1, §2

endogenous PTP1B-OX = biological target: T3, endogenous PTP1B-OX (Homo sapiens, UniProt P18031); assay: Intrabody interaction in 293T cells treated with H2O2 (Ni-NTA pull down / anti-PTP1B immunoprecipitation); format: cell-based; conditions: 1 mM H2O2 5 minutes, FIGS. 11, 12
T3 construct: endogenous in cells; host or cells: 293T cells (transfected only with the scFv intrabody)
T3 sequence (P18031 1-435): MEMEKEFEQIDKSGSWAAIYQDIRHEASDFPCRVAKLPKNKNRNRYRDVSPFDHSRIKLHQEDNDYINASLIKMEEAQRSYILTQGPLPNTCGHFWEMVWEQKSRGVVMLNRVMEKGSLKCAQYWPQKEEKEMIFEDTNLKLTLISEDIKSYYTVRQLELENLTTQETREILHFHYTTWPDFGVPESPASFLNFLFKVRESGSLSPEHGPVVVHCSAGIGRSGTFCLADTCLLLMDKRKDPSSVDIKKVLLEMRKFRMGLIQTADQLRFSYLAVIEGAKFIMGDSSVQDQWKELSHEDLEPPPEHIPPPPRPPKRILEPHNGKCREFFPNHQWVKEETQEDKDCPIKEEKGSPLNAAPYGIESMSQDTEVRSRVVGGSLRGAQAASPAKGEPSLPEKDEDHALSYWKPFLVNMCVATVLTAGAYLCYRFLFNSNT
Protocol: One of the positive candidate scFvs (scFv45) was cloned in pcDNA3.2/V5-GW/D-TOPO expression vector and transiently expressed in mammalian cells as stable intracellular antibody (aka intrabody) (FIG. 10). To detect PTP1B-OX and scFv45 interaction in mammalian cells, scFv45 was overexpressed in 293T cells as described herein (See Example 4) and 48 hours post transfection the cells were serum-starved for 16 hours in growth medium (DMEM, low glucose) without serum (FBS), then incubated with 1 mM H2O2 (in growth medium without serum) for 5 minutes at 37° C. or treated with 20 mM NAC (in growth medium without serum) for 1 hour at 37° C. Cells treated with H2O2 were washed twice with cold (4° C.) PBS and lysed in lysis buffer (25 mM HEPES, pH 7.4, 150 mM NaCl, 0.25% Deoxychloate, 1% TritonX-100, 25 mM NaF, 10 mM MgCl2, 1 mM EDTA, 10% Glycerol, 0.5 mM PMSF, 10 mM Benzamidine, protease inhibitor cocktail). Cells treated with NAC were lysed with lysis buffer containing 2 mM TCEP to ensure a post-lysis reducing environment. Interaction between PTP1B and intrabody45 were tested by pulling down the protein complex from 1 mg of total cell lysate with Ni-NTA agarose or by immunoprecipitating PTP with anti-PTP1B (FG6). For the pull down experiment, Ni-NTA agarose beads were incubated with the lysates (both oxidized and reduced) at 4° C. Protein complex bound to the Ni-NTA agarose beads was pulled down and washed three times; first with lysis buffer containing 20 mM imidazole followed by two more washes with wash buffer (PBS, pH 7.4, 20 mM imidazole, 0.05% BSA, 0.05% Tween-20 and protease inhibitors). Applicant used 20 mM imidazole in the wash buffer to reduce the non-specific binding of proteins with the Ni-NTA agarose beads. The complex was eluted with wash buffer containing 500 mM imidazole with gentle shaking at 4° C. and the eluate was mixed with SDS sample buffer with DTT. For the immunoprecipitation experiments, 1 mg of total cell lystates (both oxidized and reduced) was incubated with anti-PTP1B antibody (FG6) at 4° C. The interacting protein complex was immunoprecipitated after incubating the lysate-antibody mixture with protein A/G Sepharose at 4° C. After immunoprecipitation, Sepharose beads were washed three times; first with lysis buffer followed by two more washes with wash buffer (PBS, pH 7.4, 0.05% BSA, 0.05% Tween-20 and protease inhibitors). The Sepharose beads were then heated at 90° C. in 2×SDS sample buffer with DTT. Proteins from the pulled down or immunoprecipitated complex were separated by SDS-PAGE. PTP was detected with anti-PTP1B antibody (FG6) and the intrabodies were detected with anti-HA (3F10)-HRP antibody [anti-HA (3F10)-HRP, Roche] by immunoblotting.
In the initial in vitro phosphatase screening assay using reversibly oxidized (with H2O2) recombinant PTP1B, Applicant found four different PTP1B-OX specific scFvs (scFv45, scFv57, scFv64 and scFv106) from the initial pool of 12 different scFvs. […] Applicant has also shown that scFv45, expressed as an intrabody in mammalian cells, can bind to endogenous PTP1B-OX but not endogenous PTP under reducing conditions. Further assessment was carried out to identify additional PTP1B-OX-specific intrabodies. Additional scFvs have been subcloned in pcDNA3.2/V5-GW/D-TOPO mammalian expression vector (FIG. 10) from their respective phagemid constructs. After transient overexpression of these scFvs as intrabodies in 293T cells, the interaction between endogenous PTP1B and these intrabodies in both H2O2-treated cells and cells was observed under reducing condition (treated with NAC and lysed with lysis buffer containing TCEP). […] All can be used in the methods and compositions described herein. Additional scFvs, such as some or all of the 137 selected individual scFvs from the library, can be similarly tested by in vitro screening and/or by binding assay in mammalian cells.

B1: scFv21: scFv, SEQ ID NO: 54 (protein)
scFv: MKKTAIAIAVALAGFATVAQAALTQPSSVSANPGGTVKITCSGSSGSYYGWYQQKSPGSAPVTVIYDNDKRPSDVPSRFSGSKSGPTATLTITGVQAEDEAVYFCGSRDNSYVGIFGAGTTLTVLGQSSRSSAVTLDESGGGLQTPGGALSLVCKASGFTFSSYDMFWVRQAPGKGLEFVAQINSAGSYTNYGSAVKGRATISRDDGQSTVRLQLNNLRAEDTGIYFCAKSASGYYYSGSDAGDIDAWGHGTEVIVSSTSGQAGQHHHHHHGAYPYDVPDYAS
binding to PTP1B-OX in vitro (PTP1B-OX): no significant binding
binding to PTP1B under reducing condition in vitro [1]: no significant binding

B2: scFv24: scFv, SEQ ID NO: 57 (protein)
scFv: MKKTAIAIAVALAGFATVAQAAVSASPGDTVKITCSGGNSSYGYGWYQQKSPGSAPVSVIYYNDERPSDIPSRFSGSASGSTATLTITGVQADDEAVYYCGNADSSTYAGIFGAGTTLTVLGQSSRSSAVTLDESGGGLQTPGGGLSLVCKASGFDFSTNAMGWVRQAPGKGLEWVAGISGSGSSTWYATAVKGRATISRDNGQSTVRLQLNNLRAEDTGTYYCTKYVGDYYWYIDAGSIDAWGHGTEVIVSSTSGQAGQHHHHHHGAYPYDVPDYAS
binding to PTP1B-OX in vitro (PTP1B-OX): no significant binding
binding to PTP1B under reducing condition in vitro [1]: no significant binding

B4: scFv61: scFv, SEQ ID NO: 94 and 164 (protein)
scFv: MKKTAIAIAVALAGFATVAQAALTQPSSVSANPGETVKITCSGGGSYAGSYYYGWYQQKAPGSAPVTLIYDNTNRPSNIPSRFSGSLSGSTGTLTITGVRAEDEAVYYCGSFDSSTDGGYAAIFGAGTTLTVLGQSSRSSAVTLDESGGGLQTPGGGLSLVCKASEFTFSSYAMEWVRQAPGKGLEWVAYINSDGSSTWYAPAVKGRATISRDNGQSTVRLQLNSLRAEDTATYYCTRGSGGENIDTWGHGTEVIVSSTSGQAGQHHHHHHGAYPYDVPDYAS
binding of intrabody to endogenous PTP1B-OX (endogenous PTP1B-OX): bound weakly to PTP1B-OX

B6: scFv28: scFv, truncated sequence, SEQ ID NO: 61 (protein)
scFv: MKKTAIAIAVALAGFATVAQAAVIYSNDERPSDIPSRFSGSTSGSTSTLTITGVQADDEAVYFCGSADSSTYAGIFGAGTTLTVLGQSSRSSAVTLDESGGGLQTPGGALSLVCKASGFTFSSFNMFWVRQAPGRGLEFVAGITSSGGSTYYGTAVKGRATISRDNGQSTVRMQLNNLRAEDTGTYFCARGAYDYYFYWNYAGTIDAWGHGTEVIVSSTSGQAGQHHHHHHGAYPYDVPDYAS
binding to PTP1B-OX in vitro (PTP1B-OX): no significant binding
binding to PTP1B under reducing condition in vitro [1]: no significant binding

Now from value to molecule:

binding of intrabody to endogenous PTP1B-OX (endogenous PTP1B-OX): bound weakly to PTP1B-OX
B3: scFv118: scFv, SEQ ID NO: 142 and 166 (protein)
scFv: MKKTAIAIAVALAGFATVAQAALTQPSSVSANLGGTVEITCSGGSGSYGWYQQKSPGGAPVTVIYYNDKRPSDIPSRFSGSKSGSTATLTITGVQVEDEAVYYCGSYDSSYVGIFGVGTTLTVLGQSSRSSAVTLDESGGGLQTPRGALSLVCKASGFTFSSYSMAWVRQAPGKGLEFVAGIQNDGSITDYGSAVDGRATISRDDGQSTVRLQLNNLRTEDTATYYCAKTTVADGVIGAYGIDAWGHGTEVIVSSTSGQAGQHHHHHHGAYPYDVPDYAS

binding of intrabody to endogenous PTP1B-OX (endogenous PTP1B-OX): bound weakly to PTP1B-OX
B5: scFv62: scFv, SEQ ID NO: 95 and 165 (protein)
scFv: MKKTAIAIAVALAGFATVAQAALTQPSSVSANPGGTVKITCSGSSSAYGYGWYQQKSPGSAPVTVIYNNNKRPSNIPSRFSGSKSGSTGTLTITGVQAEDEAVYFCGSEDSSTDAIFGAGTTLTVLGQSSRSSAVTLDESGGGLQTPGGALSLVCKASGFTFSSYDMGWVRQAPGKGLEYVAGITNDGRYASYGSAVDGRATISRDNGQSTVRLQLNNLRAEDTGTYYCARDDGSGWTGNTIDTWGHGTEVIVSSTSGQAGQHHHHHHGAYPYDVPDYAS

binding to PTP1B-OX in vitro (PTP1B-OX): no significant binding
binding to PTP1B under reducing condition in vitro [1]: no significant binding
B7: scFv105: scFv, SEQ ID NO: 132 (protein)
scFv: MKKTAIAIAVALAGFATVAQAALTQPSSVSANPGEAVKITCSGSSGSYGWYQQKSPGSAPVTVIYYNDKRPSDIPSRFSGSTSGSTSTLTITGVQAEDEAVYFCGGYDSNYLGIFGAGTTLTVLGQSSRSSAVTLDESGGGLQTPRGALSLVCKASGFTFSSYSMAWVRQAPGKGLEFVAGIQNDGSITDYGSAVDGRATISRDDGQSTVRLQLNNLRTEDTATYYCAKTTVADGVIGAYGIDAWGHGTEVIVSSTSGQAGQHHHHHHGAYPYDVPDYAS
